{
  "source": "paper PMC5093408",
  "key": {"[1]": {"molecular_target": "HUSpm Asn92Lys mutant (Spiroplasma melliferum KC3)", "test": "SEC; size-exclusion chromatography of the purified point mutants; conditions not given"}, "[2]": {"molecular_target": "HUSpm Lys35Thr mutant (Spiroplasma melliferum KC3)", "test": "SEC; size-exclusion chromatography of the purified point mutants; conditions not given"}, "[3]": {"molecular_target": "HUSpm Phe14Ala mutant (Spiroplasma melliferum KC3)", "test": "SEC; size-exclusion chromatography of the purified point mutants; conditions not given"}, "[4]": {"molecular_target": "HUSpm Phe29Ala mutant (Spiroplasma melliferum KC3)", "test": "SEC; size-exclusion chromatography of the purified point mutants; conditions not given"}, "[5]": {"molecular_target": "HUSpm Val17Thr mutant (Spiroplasma melliferum KC3)", "test": "SEC; size-exclusion chromatography of the purified point mutants; conditions not given"}, "[6]": {"molecular_target": "histone-like HU protein from Spiroplasma melliferum KC3 (Spiroplasma melliferum KC3)", "test": "crystal structure; hanging-drop vapour diffusion at 4 °C; protein 14 mg/ml in 20 mM Tris HCl pH 8.0, 200 mM NaCl, 5% glycerol; reservoir 0.1 M Tris HCl pH 8.0, 35% v/v PEG 400, 5% glycerol; one monomer per asymmetric unit, dimer by a crystallographic twofold axis; 1.4 Å"}},
  "data": [
    {"substance": "HUSpm Asn92Lys mutant (natural protein)", "values": [
      {"measurement": "stoichiometry N", "setting": "[1]", "result": 2}
    ]},
    {"substance": "HUSpm Lys35Thr mutant (natural protein)", "values": [
      {"measurement": "stoichiometry N", "setting": "[2]", "result": 2}
    ]},
    {"substance": "HUSpm Phe14Ala mutant (natural protein)", "values": [
      {"measurement": "stoichiometry N", "setting": "[3]", "result": 2}
    ]},
    {"substance": "HUSpm Phe29Ala mutant (natural protein)", "values": [
      {"measurement": "stoichiometry N", "setting": "[4]", "result": 2}
    ]},
    {"substance": "HUSpm Val17Thr mutant (natural protein)", "values": [
      {"measurement": "stoichiometry N", "setting": "[5]", "result": 2}
    ]},
    {"substance": "histone-like HU protein from Spiroplasma melliferum KC3 (natural protein)", "values": [
      {"measurement": "stoichiometry N", "setting": "[6]", "result": 2}
    ]}
  ]
}
